Measured values published in the supplement of paper PMC9170038.

Test system: MS2 coat protein
Experiment: apparent KD of MS2 coat protein; designed switch direction (-1 OFF switch, 1 ON switch): -1; higher = weaker reporter binding
Procedure, shortened: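 Each step of the titration lasted 0.8–1.5 h at the lowest concentration and 10–20 min at the highest. The protein, SNAP-549-labelled MS2 coat protein, went from 0.7 or 1.5 nM doubling to 3 µM over RNA switches transcribed on Illumina chips by stalled E. coli RNA polymerase. Normalised cluster fluorescence was curve-fitted, and the per-design median over clusters is given as apparent KD.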

[1] = Eterna round: R95, input ligand: FMN 200 uM
[2] = Eterna round: R95, input ligand: microRNA oligo, concentration not stated
[3] = Eterna round: R95, input ligand: none
[4] = input ligand: microRNA oligo, concentration not stated

Sequence | apparent KD of MS2 coat protein [1] [nM] | apparent KD of MS2 coat protein [2] [nM] | apparent KD of MS2 coat protein [3] [nM] | apparent KD of MS2 coat protein (input ligand: FMN 200 uM) [nM] | apparent KD of MS2 coat protein [4] [nM] | apparent KD of MS2 coat protein (input ligand: none) [nM]
GAGAAAGCAAGCAAGUGAAACAUGAGGAUCACCCAUGUCCUCAUUUGCUCGUCUUAUAAAAGCUAUCGAAAGAUAGC [Mat - Sensor v3 - turn-off var 1 - Eli Mod - D48] (puzzle: Sensor v3, turn-off variant 1) | 13.2 | 139 | 10.3 |  |  | 
GAGAGGUCAGGAUAUACGGAGAGAGGGAGUUGGUGAGGGUAACAUGAGGAUCACCCAUGUAGAAGGGACUAAGG [JR_Exclu2_Sub077] (puzzle: Exclusion 2) |  | 22.8 |  |  |  | 
AAGGGUGCUUUCAGAACGACAUGAGGAUCACCCAUGUAGACUGAGGAUAUCUACUCCUAAGGACGGGAGAAGGCAGUGUAAUGC [Ex NG3 #65] (Eterna round: R96, puzzle: Exclusion NG 3) |  |  |  | 19.5 | 14.2 | 21.7
CUGCUCCGUGUAGGAUAUCCGCGCAACCAACGCGGAGAAGGACAUGAGGAUCACCCAUGUAUGUUAUUAUCACGUGAAGCGUCC [Design 29] (Eterna round: R96, puzzle: Exclusion NG 1) |  |  |  | 32.5 | 15.5 | 28.1
UUUGUUUAUGUAGGAUAUGCCUGGCGUGCCUUUGCAGAAGGACAUGAGGAUCACCCAUGUAACAUGAGGCUCACCCAUGUCGCC [salish99_ExNG1_r04_113] (Eterna round: R96, puzzle: Exclusion NG 1) |  |  |  | 134 | 91.6 | 165
GUGCAAUGAGGAUAUACGUUGGUGAACAUCUGUGUGCUCCUACAUGAGGAUCACCCAUGUAGAAGGCAUGUCAC [LRO-Excl2-18] (Eterna round: R96, puzzle: Exclusion 2) |  |  |  | 18.3 | 10.8 | 14.1
AGGGAGUAAGGAUAUCGGAAAGGACACGAAAGUGACAAAGACGAGAAGGUACAUGAGGAUCACCCAUGUAAAAA [milkweed 24] (Eterna round: R96, puzzle: Exclusion 4) |  |  |  |  | 18.2 | 
AAGAAACAUGAGGAUCACCCAUGUGAGGAUAUGAGUAAGAAAAGAAAAGAAAGAAGAGUCAGAAGGCACAAAGG [salish99-ex1_r3_060] (puzzle: Exclusion 1) | 49.5 | 35.4 | 41.5 |  |  | 
GCUUCGGCAGGAUAUACAAUGAAGUUGAGAAAUCGGCUUCGACAUGAGGAUCACCCAUGUAGAAGGGUUGAAGU [-26.3, -24 kcal, A 32% 3, 3 bis] (Eterna round: R97, puzzle: Exclusion 2) |  |  |  | 36.3 |  | 48.6
AAUAACAGAGGAUAUACUGUUUUAUGUGUUUAUUGUUUUGAACAUGAGGAUCACCCAUGUAGAAGGCUGAGUAA [JMF 39] (puzzle: Exclusion 2) |  | 24.5 |  |  |  | 
CCCACAAGCUUUUUGCUCGACAUGAGGAUCACCCAUGUUGAAUGGGUUAGAUGUGUGUGAAACACACACAUCUACCU [-32.5, -55.3 kcal, A 27%] (Eterna round: R97, puzzle: Sensor, turn-off variant 1) |  |  |  | 20.3 |  | 18.6
GCCAGAGCAGGAUAUUCAAUAUCUCACAUGAGGAUCACCCAUGUCCAGCGAAAGCUGGAGGGAGAAGGGCUCUGGC [Fiskers Ex 5 - 9] (puzzle: Exclusion 5) | 42.1 | 57.3 | 61.6 |  |  | 
UAUAUAUAGUAAGGAUAUGUAUUUAUGUUAUAAACAGAAGGUACUGACAUGAGGAUCACCCAUGUUUUAGUGUGGGCAUGUAGA [JMF's solution 16] (Eterna round: R96, puzzle: Exclusion NG 1) |  |  |  |  | 76.3 | 
UAAAACCGGUGAGGAUAUUUUUAAUAGAGCUUUAUGAUAUACAUGAGGAUCACCCAUGUUACGUUAAAGAAGGCAUCGGAAAAU [Mat - Exclusion NG 2 - Mod of JL - D99] (Eterna round: R96, puzzle: Exclusion NG 2) |  |  |  | 13.7 | 14.5 | 19.9
